Measurements published in US10047345B2, “Culturing of mesenchymal stem cells with FGF4 and nicotinamide” (Gamida-Cell Ltd., priority 2012, dated 2018).
Entries after “also recorded” stand apart in the source; their conditions may differ.

Columns and labels:
MSCs = details: cited from earlier work
[1] = system: umbilical cord-derived CD133+ hematopoietic stem cells; assay: Differentiation and proliferation of ex-vivo cultured hematopoietic stem cells (FACS surface markers); format: cell-based
Experimental: Umbilical cord-derived hematopoietic stem cells were isolated using CD133 microbeads and CliniMACS® separator (Miltenyi, Inc. Auburn, Calif.), and cultured for 3 weeks in MEMα supplemented with 50 ng/ml TPO, IL6, SCF, Flt3, fetal bovine serum, ±2.5 or 5 mM nicotinamide, and/or 10, 50 or 200 ng/ml FGF4. After 3 weeks in culture the cells were stained for surface markers (CD38, CD133, CD33, CD19) and the cell populations determined by FACS analysis (see below). Results are expressed as percentage of total population assayed.
(§1) At different time points the cells were detached with 0.25% trypsin-EDTA. The cells were washed with a PBS solution containing 1% BSA, and stained (at 4° C. for 30 min) with either fluorescein isothiocyanate (FITC) or phycoerythrin (PE)-conjugated antibodies: 105 PE, 105 FITC (Serotec, Raleigh, N.C.), 45 FITC, 14 FITC, HLA-DR FITC, 106 PE, 31 PE (BD, Franklin Lakes N.J.), 34 PE (Dako, Glostrup, Denmark), 73 PE, HLA class1 PE, 49b PE (Pharmingen, San Diego, Calif.), 29 PE, 44 PE, 54 FITC, 59 PE, 90 PE (BioLegend, San Diego, Calif.). CD133—(AC141) PE (Miltenyi, Auburn, Calif.), CD38 FITC (Dako, Glostrup, Denmark), CD19 FITC (BD Biosciences, Franklin Lakes N.J.), CD33 FITC (BD Bioscience, Franklin Lakes N.J.).
(§2) The cells were then washed in the above buffer and analyzed using a FACScalibur® flow cytometer (Becton Dickinson, Franklin Lakes N.J.). The cells were passed at a rate of up to 1000 cells/second, using a 488 nm argon laser beam as the light source for excitation. Emission of 10000 cells was measured using logarithmic amplification, and analyzed using the CellQuest software (Becton Dickinson). Cells stained with FITC- and PE-conjugated isotype control antibodies were used to determine background fluorescence.
Umbilical cord-derived CD133+ hematopoietic stem cells were isolated and cultured for 3 weeks in medium supplemented with early-acting growth factors and fetal bovine serum, nicotinamide and/or FGF4. After 3 weeks in culture the cells were stained for surface markers (CD38, CD133, CD19) and the cell populations determined by FACS analysis. Cell proliferation was assessed by counting total cells at three weeks.

mesenchymal stem cells [2] = assay: Cell size of cultured MSCs (Cedex cell counter); format: cell-based, human; details: between days 10-32 of culture
Experimental: Cell size was measured using Cedex Automated Cell Counter (Innovatis). The cells were diluted 1:2 in Trypan Blue (Sigma) and cell size was measured automatically under microscope.
(§3) Mesenchymal stem cells were selected and cultured in the presence of particular growth factors (basic fibroblast growth factor—bFGF, heparin binding epidermal growth factor—HB-EGF, fibroblast growth factor 4—FGF-4 and platelet derived growth factor, homodimer, subunit B, PDGF-BB) in the presence and absence of nicotinamide for three or four passages and the number and size of the cells was calculated.

mesenchymal stem cells [3] = assay: Percent of MSC (CD105+CD45-) by FACS; format: cell-based, human; details: NAM 5 mM, FGF4 50 ng/ml, PDGF-BB 50 ng/ml
Experimental: as §1, with “CD133—(AC141) PE (Miltenyi, Auburn, Calif.), CD38 FITC (Dako, Glostrup, Denmark), CD19 FITC (BD Biosciences, Franklin Lakes N.J.), CD33 FITC (BD Bioscience, Franklin Lakes N.J.).” left out
as §2, with “The cells were passed at a rate of up to 1000 cells/second, using a 488 nm argon laser beam as the light source for excitation.” left out
as §3

For EGF: Epidermal growth factor, the “increase in the number of colony-forming units of MSCs” value (MSCs; Tamama et al. 2010) is listed as 25%.

B1: FGF4: Fibroblast growth factor 4, the FGF4 gene product, a 176 AA long protein (protein, UniProt P08620 31-206, looked up)
Fibroblast growth factor 4: APTAPNGTLEAELERRWESLVALSLARLPVAAQPKEAAVQSGAGDYLLGIKRLRRLYCNVGIGFHLQALPDGRIGGAHADTRDSLLELSPVERGVVSIFGVASRFFVAMSSKGKLYGSPFFTDECTFKEILLPNNYNAYESYKYPGMFIALSKNGKTKKGNRVSPTMKVTHFLPRL
With B1 the “degree of differentiation of hematopoietic progenitor cells (CD38 and CD133-expressing fraction)” value ([1]; 3 weeks culture, nicotinamide 2.5 or 5 mM, FGF4 10 to 200 ng/ml) was “without any effect on the degree of differentiation; also recorded: neither improved nor reduced”, the “total cell proliferation in hematopoietic cultures” value ([1]; 3 weeks, FGF4 with or without nicotinamide, results not shown) was “without any discernible effect” and the “fraction of undifferentiated early progenitors (CD38-CD133+)” value ([1]; 3 weeks, FIG. 35) was “absence of any significant effect”. The “differentiation (CD38+ cells)” value ([1]; 3 weeks, FIG. 36) was “absence of any significant effect”, the “myeloid lineage differentiation (CD33+ cells)” value ([1]; 3 weeks, FIG. 37) was “moderate enhancement” and the “lymphoid lineage differentiation (CD19+ cells)” value ([1]; 3 weeks, FIG. 38) was “absence of any significant effect”. For the same molecule, the “abundance of committed myeloid or lymphoid cells (CD33, CD19)” value ([1]; three week cultures) was “without any effect” and the “cell diameter of cultured MSCs” value (mesenchymal stem cells [2]) was “greater than 20 μm”.

B2: BMP-3: member of the transforming growth factor beta family (protein, UniProt P12645 363-472, looked up)
Bone morphogenetic protein 3: QWIEPRNCARRYLKVDFADIGWSEWIISPKSFDAYYCSGACQFPMPKSLKPSNHATIQSIVRAVGVVPGIPEPCCVPEKMSSLSILFFDENKNVVLKVYPNMTVESCACR
For B2, the “increase of MSC proliferation” value (MSCs; Stewart et al. 2010) is listed as “threefold”.

B3: PDGF-BB: platelet derived growth factor, homodimer, subunit B (protein, UniProt P01127 82-190, looked up)
Platelet-derived growth …: SLGSLTIAEPAMIAECKTRTEVFEISRRLIDRTNANFLVWPPCVEVQRCSGCCNNRNVQCRPTQVQLRPVQVRKIEIVRKKPIFKKATVTLEDHLACKCETVAAARPVT
In the case of B3, the “fraction of MSC (CD105+CD45-) versus cells other than MSCs in the culture” value (mesenchymal stem cells [3]) is reported as “contaminated with a higher fraction of cells other than MSCs”.
